Patent US20030049702

Experiments:
[1] = molecular target: T1, in vitro translated FADD (from pcDNA3-Flag-FADD), Q13158
T1 chain: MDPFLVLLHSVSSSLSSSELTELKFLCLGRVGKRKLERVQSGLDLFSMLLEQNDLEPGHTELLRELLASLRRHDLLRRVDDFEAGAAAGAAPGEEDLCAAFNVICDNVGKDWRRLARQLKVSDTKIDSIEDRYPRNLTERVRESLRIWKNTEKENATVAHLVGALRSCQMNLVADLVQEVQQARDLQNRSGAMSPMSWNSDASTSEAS

B1: in vitro translated pro-Casp8 (from pcDNA3Flag-pro-Casp8) (protein)
chain: MDFSRNLYDIGEQLDSEDLASLKFLSLDYIPQRKQEPIKDALMLFQRLQEKRMLEESNLSFLKELLFRINRLDLLITYLNTRKEEMERELQTPGRAQISAYRVMLYQISEEVSRSELRSFKFLLQEEISKCKLDDDMNLLDIFIEMEKRVILGEGKLDILKRVCAQINKSLLKIINDYEEFSKERSSSLEGSPDEFSNGEELCGVMTISDSPREQDSESQTLDKVYQMKSKPRGYCLIINNHNFAKAREKVPKLHSIRDRNGTHLDAGALTTTFEELHFEIKPHDDCTVEQIYEILKIYQLMDHSNMDCFICCILSHGDKGIIYGTDGQEAPIYELTSQFTGLKCPSLAGKPKVFFIQACQGDNYQKGIPVETDSEEQPYLEMDLSSPQTRYIPDEADFLLGMATVNNCVSYRNPAEGTWYIQSLCQSLRERCPRGDDILTILTEVNYEVSNKDDKKNMGKQMPQPTFTLRKKLVFPSD
[1]
  caspase-8 activity (cleavage of Ac-IETD-AFC) in vitro: ˜3-fold increase in caspase-8 activity
DAP3-His6
  caspase-8 activity (cleavage of Ac-IETD-AFC) in vitro: increased protease activity by ˜5-fold
  caspase-8 activity (cleavage of Ac-IETD-AFC) in vitro, DAP3 and FADD added together: ˜10-fold increase in caspase-8 activity
